Values joined by “and” are separate entries in the source; they are usually repeats but may differ in a detail not shown here. Identical values can stand only once. Each block holds one substance with its values, some of them ahead of it.
Columns and labels:
[1] = target: IgM in bamboo shark plasma (Chiloscyllium plagiosum (endogenous in plasma)); assay: non-reducing SDS-PAGE and SDS-agarose gel electrophoresis with Western blot; 1 µl plasma heated at 65°C for 10 min in SDS-loading buffer without reducing agents; 5% SDS-PAGE; 1.5% agarose gel with 0.1% SDS in the running buffer for plasma proteins larger than 300 kDa; blots probed with anti-IgNAR pAb or anti-IgM [Z69]; multimers counted in Ig monomers by molecular weight
[2] = target: IgW in bamboo shark plasma (Chiloscyllium plagiosum (endogenous in plasma)); assay: non-reducing gel electrophoresis with Western blot (data not shown); IgW multimers in plasma, data not shown; anti-IgW [V43]
[3] = target: immunoglobulin new antigen receptor (IgNAR), secretory, in bamboo shark plasma (Chiloscyllium plagiosum (endogenous in plasma)); assay: non-reducing SDS-PAGE and SDS-agarose gel electrophoresis with Western blot; 1 µl plasma heated at 65°C for 10 min in SDS-loading buffer without reducing agents; 5% SDS-PAGE; 1.5% agarose gel with 0.1% SDS in the running buffer for plasma proteins larger than 300 kDa; blots probed with anti-IgNAR pAb or anti-IgM [Z69]; multimers counted in Ig monomers by molecular weight

stoichiometry N [1]: 5
Substance: IgM in bamboo shark plasma (natural protein)

stoichiometry N [2]: 5 and 2
Substance: IgW in bamboo shark plasma (natural protein)

stoichiometry N [3]: 3 and 4 and 5
Substance: immunoglobulin new antigen receptor (IgNAR), secretory, in bamboo shark plasma (natural protein)

From PMC8692893
